Test results: paper PMC2432501, “Binding to the Minor Groove of the Double-Strand, Tau Protein Prevents DNA from Damage by Peroxidation”

Columns and labels:
[1] = biological target: T1, tau23 (human, UniProt P10636-2 1-352); assay: EMSA; shift from [tau]/[bp] 1/100, greatest at 1/3; 20 mM Tris pH 7.2, 50 mM NaCl, 0.5 mM DTT, 1 mM MgCl2, 0.5 mM EDTA, room temperature 20-30 min; native PAGE in 1xTBE (20% gel at 4 C, or 8% for the 26 bp assay); conditions: protein: recombinant; 5' overhang 1 nt at both ends
T1 sequence (P10636 other isoform, or with tags, fused parts or gaps): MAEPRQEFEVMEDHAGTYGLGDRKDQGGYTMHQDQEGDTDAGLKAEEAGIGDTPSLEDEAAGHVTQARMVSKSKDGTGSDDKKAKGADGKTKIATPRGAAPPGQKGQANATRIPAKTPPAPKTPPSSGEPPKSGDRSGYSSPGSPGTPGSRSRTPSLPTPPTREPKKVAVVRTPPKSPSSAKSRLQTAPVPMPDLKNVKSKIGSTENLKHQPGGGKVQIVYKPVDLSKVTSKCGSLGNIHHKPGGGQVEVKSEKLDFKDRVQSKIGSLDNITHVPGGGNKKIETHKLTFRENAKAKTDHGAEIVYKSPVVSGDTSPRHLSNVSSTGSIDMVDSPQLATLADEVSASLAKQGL

[2] = biological target: T1, tau23; assay: AFM; protein/DNA 8/1; particle 8.54 nm vs 7.82 nm tau alone; 20 mM Tris pH 7.2, 50 mM NaCl, 0.5 mM DTT, 1 mM MgCl2, 0.5 mM EDTA, room temperature 20-30 min; native PAGE in 1xTBE (20% gel at 4 C, or 8% for the 26 bp assay); conditions: protein: recombinant; 5' overhang 1 nt at both ends
[3] = biological target: T1, tau23; assay: EMSA; marked shift from [protein]/[DNA] 1/2; 2.5 uM DNA; 20 mM Tris pH 7.2, 50 mM NaCl, 0.5 mM DTT, 1 mM MgCl2, 0.5 mM EDTA, room temperature 20-30 min; native PAGE in 1xTBE (20% gel at 4 C, or 8% for the 26 bp assay); conditions: protein: recombinant; blunt
[4] = biological target: T1, tau23; assay: EMSA; retardation depends on tau/DNA ratio; 20 mM Tris pH 7.2, 50 mM NaCl, 0.5 mM DTT, 1 mM MgCl2, 0.5 mM EDTA, room temperature 20-30 min; native PAGE in 1xTBE (20% gel at 4 C, or 8% for the 26 bp assay); conditions: protein: recombinant; 5' overhang 1 nt at both ends
[5] = biological target: T1, tau23; assay: EMSA; 20 mM Tris pH 7.2, 50 mM NaCl, 0.5 mM DTT, 1 mM MgCl2, 0.5 mM EDTA, room temperature 20-30 min; native PAGE in 1xTBE (20% gel at 4 C, or 8% for the 26 bp assay); conditions: protein: recombinant; 5' overhang 1 nt at both ends

B1: 26 bp DNA (dsDNA)
DNA 1: ACTCCGTGCATAAATAATAGGCACTCG
DNA 2: CCGAGTGCCTATTATTTATGCACGGAG
binding result [1]: binds

B2: 12 bp DNA (dsDNA)
DNA 1: AGTGCATAAATAA
DNA 2: CTTATTTATGCAC
binding result [2]: no binding

B3: 20 bp DNA (dsDNA)
DNA 1: AACGAGAAGCGCGATCACAT
DNA 2: ATGTGATCGCGCTTCTCGTT
binding result [3]: binds

B4: 14 bp DNA (dsDNA)
DNA 1: ACCGTGCATAAATAA
DNA 2: CTTATTTATGCACGG
binding result [4]: binds

B5: 13 bp DNA (dsDNA)
DNA 1: ACGTGCATAAATAA
DNA 2: CTTATTTATGCACG
binding result [5]: binds
